{
  "source": "the DeepSol protein solubility set",
  "data": [
    {"assay": "soluble on expression in E. coli; label from the status in PepcDB or PDB records", "values": [
      {"sequence": "MQPLPDPKPNTQKEHHPVDRNFIAMIDDLKTTQIPWQKPGHIMTEDEQKMWNATRMREYRRKSNETLEKSKSMLDGLKSQCTVNTVVLKNMLITKSVEDSVKLNAARFLGKSEKELMDIPEIKQMFQQYWNCRKTASNSHYEQRSLIYLDRVVSLQTEYLNYKANRNDSRSPSQLVKKIKDATMKAEAYEFFMDDKRVRKVIGELNEIDSKFKENIGAWLLQQLKIDSSLSHLLST", "soluble on expression in E. coli": "not soluble"},
      {"sequence": "MHAEKDLITKETTQPVPPPAAVVTHQPITKRYDPPISISPPPQRNNYSHVKVTVDSDTSPRQQAFIDDIVAKGGKLAVVTYDRGGQNTKELTVHKGEYLEVIFDERNWWECKNMHQRVGYVPHTILSMVPFEQQQYASPNHHNNSSSTGGYNNGHHQGPGMLPEDAPSYVKERQGKRGEFRYF", "soluble on expression in E. coli": "not soluble"},
      {"sequence": "MERLEEARKRLEEARRVAVLTGAGISKPSGIPTFRDAEGLWKNFNPLDYATPEAYARDPEKVWAWYAWRIQKVREAKPNPAHYALVELERRILSRGGSFLLVTQNVDGLHALAGSQNLVELHGNLLRARCEACGKRFPLPEAFAPPPFCPACGHRARPDVVWFGEFLPEGAWERAERAFAEADFALVVGTSAEVEPAASLGRIAFASGAYLVEVNPEPTPLTPLAHLSLRTGAVEGMALLLPPSPEDQAEGHLS", "soluble on expression in E. coli": "soluble"},
      {"sequence": "MSRFWSRWYSGLVSCTARVIMIDLNHLDTIANRLSDLLPPALYESRGELQTLFKDVLQAGLAKLDLVTREEFEIQRVILLSTREKLETLLHTLVLLEDRLTDQGKNLEHHHHHH", "soluble on expression in E. coli": "not soluble"},
      {"sequence": "MARRIGHPYQNRTPPKRKKPRTSFTRIQVAELEKRFHKQKYLASAERAALARGLKMTDAQVKTWFQNRRTKWRRQTAEEREAERQAANRLMLS", "soluble on expression in E. coli": "soluble"},
      {"sequence": "MSLSSVRDKYNFNSEWLLYVGDTPEAKEVRFQDTDWKKVTLPRPFNEDEAFRLSIEQLTDTVMWYRKHFRLPADSKNKKVFVEFEGVRQGADFYINGEYIGLHENGAMAVGFDLTPYIKYGQENVMAVRIDNNWNYKERATGTKYQWSDRNFNANYGGIPKNVWLHVTDKLYQTLPLYSNLKTTGVYIYAEDIRVKSRKAVVHAESEIKNEYNRDKKVAYKVEVFDRDGKSIKSFEGTQTVVKPGETATLEASAEIDGLHFWSWGYGYLYTVKTSLWVDGRKVDEVATRTGFRKTRFGKGMIWLNDRVIQMKGFAQRTSNEWPGVGMSVPAWLSDYSNGLMVEDNANLVRWMHITPWKQDIESCDRVGLIQAMQAGDAEKDREGRQWEQRTELMRDAIIYNRNNPSILFYECGNESISREHMIEMKAIRDKYDPHGGRAIGSREMLDIREAEYGGEMLYINKSKHHPMWAMEYCRDEGLRKYWDEYSYPYHKNGEGNNSFRSAMTNKVQKKVDARAYNHNQDSFTIENVIRWFDYWRERPGTGDRVSSGGVKIIFSDTNTHYRGVENYRRSGVTDAMRIPKDPFYAHQVMWDGWVDIENPRIHIVGHWNYKEDVVKPVYVVSSAEKVELFLNGKSLGNGQRDYHFLYTFKDVAFVPGKLEAVGYDKNGKECCRAELQTAGKPEQIKLSVIQSPKGWKADGADMVLLQVEVMDKDGRRCPLANDLIHFDVEGPAEWRGGIAQGKDNYILSKDLPVECGINRALIRSLTTPGAVRITAKADGLQSAEISLSSAPVEVKNGLSNYIPGDELEGRLTRGETPLTPSYKDTKVDVNILSAVAGANQDETIKSFDDNELSEWKNDGRLNSAWITYSLERAARVDEICMKLTGWRLRSYPLEIYAGDELIWSGETEKSLGYIHLNVKPVLTNEITIRLKGASKEGDGFGQIVEVAAPAAGELDLFKAKNGDKTNHELRIVEIEFKENLWQEGHHHHHH", "soluble on expression in E. coli": "soluble"},
      {"sequence": "MNTEKSEKCINVAPSGIRRMKKIHQMEIAQLFEYRRNCLGEKRTAVENVINAKVVAWNLAVVRRRHYFDLHGMTPQGAVDFVAQIVEGRRPGYIKLETGRGNHSKDNIPAIQNRLLQDFGNLSGFQIAIDPSNLGVLILSFQ", "soluble on expression in E. coli": "not soluble"},
      {"sequence": "VDGDQCESNPCLNGGSCKDDINSYECWCPFGFEGKNCEL", "soluble on expression in E. coli": "soluble"},
      {"sequence": "YRENDPRLQLAFKLFLDGCTDKEVEQQTGINRRTFRRYRMKYGITNSLRHKND", "soluble on expression in E. coli": "not soluble"},
      {"sequence": "MLRQIVLMCAIHTACSFSIRDIINGKRGADAAIPAPCPTWHPFACPSGECVPIKYLCDGSPDCSDEYDENKSMCTAATRPPVEETQAFLKALMSAHGKDFLVKVFGPKAKAELSGMGGVDKVAVALSQTPTADLFASEMKLDDGETQHMLEVMEGILNGSTDELTSNEAADFRFFVQKLQETGFF", "soluble on expression in E. coli": "not soluble"},
      {"sequence": "AIAGSVNSRGHKAEAQVVMMGLDSAGKTTLLYKLKGHQLVETLPTVGFNVEPLKAPGHVSLTLWDVGGQAPLRASWKDYLEGTDILVYVLDSTDEARLPESAAELTEVLNDPNMAGVPFLVLANKQEAPDALPLLKIRNRLSLERFQDHCWELRGCSALTGEGLPEALQSLWSLLKSRSCMCLQARAHGAERGDSKRS", "soluble on expression in E. coli": "soluble"},
      {"sequence": "EAGMAAITAATAGNMQSQINYTRSNEKEADRFGIATLAKAGFDVQAMPRFFGRLADEYRYASKPPPMLLTHPLPEDRVADSRQRAQAYPPMRIAPSIDYHLARARIVARYAGIDGQAALGWFERTQKKASADIMPSFDYGRALVHLDNKRLSQAEPILKKLLAQDPGNPFYLDAMTDLYIEKKQPQKAVELLNSALKRNPQNKVLTINYANALLEANQNDQAVRTLQRYTHDNPEDSNGWQLLSKGYHALGRSDEELAARAEILALRANWNKAIQYYSEASKMAELGSLEQARYDARIDQLMIQRDRFMALQ", "soluble on expression in E. coli": "not soluble"},
      {"sequence": "MGSDKIHHHHHHMFDMFEKAVVFGLYSITPVHAGSGAELSVIDLPIQRERHTGFPVIWGQSLKGVLRSRFRQLELDEKIEVESQKWKWKEKTKEVLKEKADEFIKKVEERKRDPLLTEIVFGPATDGASEHAGAVSVGDAKILLFPVRSAKGVFAFVTSPIVIQRLKEDFELVSEIENDIELKQILSRFKVELSNNETIAGNALILNGENKVILEDIVLKVKSDSNVIENLVEVLKTLFGDNFFGKPIESIKERIAIVSDDVFKSFTRFSTEIVARVRIDAEKGTVARGGLWYEEFLPSDTLMYSLIAVGSPKKENLPKEVDNTQKIVNVLKVTFNNAFLQIGGDETVGKGFVKVRAGVLTGGHKGN", "soluble on expression in E. coli": "not soluble"},
      {"sequence": "MLAILYDRIRPDERMLFERAEALGLPYKKVYVPALPMVLGERPKELEGVTVALERCVSQSRGLAAARYLTALGIPVVNRPEVIEACGDKWATSVALAKAGLPQPKTALATDREEALRLMEAFGYPVVLKPVIGSWGRLLAKVTDRAAAEALLEHKEVLGGFQHQLFYIQEYVEKPGRDIRVFVVGERAIAAIYRRSAHWITNTARGGQAENCPLTEEVARLSVKAAEAVGGGVVAVDLFESERGLLVNEVNHTMEFKNSVHTTGVDIPGEILKYAWSLAS", "soluble on expression in E. coli": "soluble"},
      {"sequence": "SPPENRGEHETGRTLHIATYNIHKGLSFFNQRLILHELRDQLHGLDVDVVFLQEVVGEHALHATRFRDWPRNTQYEFLADSMWPDFAYGKNAVYGHGHHGNAILSRFSIVNWENEDISAHRFESRGLLHCELAIPGWKDTLHCICVHLGLFRRGRSQQLEAIEKRIRQLVSPDAPLVVAGDFNDWRGAANPLLASRLNLVEVFQHTHGKAARSFPSVLPLLRLDRIYIRGFQVKNAQILHNRPWSRISDHAVLSANIMRT", "soluble on expression in E. coli": "not soluble"},
      {"sequence": "MAHHHHHHMVSGFVEFEILRGKNYPQTEDDPNPCTTQVTVSVVDALSGAVLSRAQLSSIQQNSNAPFYNDTLNFRVEDAPEDVCLSISVSEHSRQKIPFVLFYGKQIIGLSKLKAKQRFVIPLFSGEEGTQQVEIGADTLDLESSGKVPFLSARIQFTKDKVFDKTDPYSDVDVSGKGLSFDGKNQLVPEGTQYVWLRLKSDKKWTNSFQYELSVAWRSRAPLEAENQGNTKSRKGTTGGMAAISAEPDSARTLGDIIIKKWCCRRTHQVLTRVCITAEKYGNKVTDLTFTPKEEVEFRTNKKERCVFLEQICKKRLEDACSNCLRQWLNRLWILFVTGVDSDPAEARALSYEVRKAVHDAQFTEADAIILQACLLFSFIPSLKYEVCQALSESDYQAAQSEKKIEVGALESPQCRVTPSQEMFTRVFISFVGSLLDTLTEAEIAKAAAEFKPAIWDAQQRIAKGAKSTIGSCKKKYEGSIFKGTGIHIDHLDKLGRRKQVPKFV", "soluble on expression in E. coli": "soluble"},
      {"sequence": "MNGGTFTTGKEKERAGIYFNFKTTAQERVSLSERGTVALPVASSWGEAKTFVSISSVEDLNKKVGLSIDDPSLLLLREAKKNAKTVLMYRLTEGVRASADIAEGVKATAVYGGTKGNDIIIRINQNVLDANSFDVTTYMDESEVDKQTVKKAEELTANGYVTFTGTGDLSSTIPLTGSEGDTAAETLNASAGIRLSGGTDKAPVNSDYTDFLAAAETESFDVIALPVAEGDQLKATFAAFIKRLRDGQGQKVQGVTANYAGDYEGIINVTEGVLLEDGTEVTPDKATAWVAGASAGATFNQSLTFVEYEGAVDVLHRLDHDTIVERLGKGEFLFTFDARDKSVSVEKDINSLVTFTAEKNKKFAKNKIVRVLDAVNNDLTRELKALIKSRKGSGSDIPASEDGLQYVKTMITQYMTTLQDAGGITGFDSDEDITISMNEDRDGFLIDLLYSLSTQQKNSTLMWRLEHHHHHH", "soluble on expression in E. coli": "soluble"},
      {"sequence": "MGSDKIHHHHHHMKISLGPLLYCWEKQQVIDFYQQVANSQIPLVYLGEAVCSRRRELKWGDYLELAKMLKSAGKDVVLSTLALIEAPSEYTELKRQVDNGEFMIEANDMAAVYLAKEHKQPFVCGASINNYNRASLDILQRLGMQRFVMPVELSKTWLSQVVDKKPSFEVEVLGHGYLPLAHSARCFTARHSQLAKDSCETVCRQYSKGLLAQTQEAQPLLRLNGIQTQSASCVDLRSEISAMVKIGVDVFRVSPSSLACIAKADALVEALNSGAMDAQYPLSDEHCNGYWFGEAGLKSLS", "soluble on expression in E. coli": "not soluble"},
      {"sequence": "MQNQYFTVQENYKERFYQIPKVFFTSENYKNLTNDMKIAYAILRDRLNLSIKNSWVDEDGNIYFVYSNEKLMEILNCKKEKLTKIKKGLENDGLLIQKRRGLNKPNILYLMKPIVTERDIYKIEKEENDVEPYGEKEVRKSNVQKFENRTSRSSKIERPEVRKSNTNDTDFNDIDFNDTENNDMNDLNDIKYKNEISNHSNHSNQFTHNFDDKEMLLQEFPEQLTNYLLKYDYRDLEIIKAVILKAKKSFNSRHEDMHYMLEDIEDEILTSLKRLKKAIHDRGVKGQKETIKSMQAYLMQTILTELEETHALYMRRKNMKQYNIFNQ", "soluble on expression in E. coli": "soluble"},
      {"sequence": "MGSDKIHHHHHHMIHITSLDDGLELFKALGSDIRIQILKILLENNQMSMNQIANELNISNGALTGHIKKLEECGLISASNDSSGHGNQKLCSLIQDRILVEIEKPIDLSNVYNTSIKVGQFSSHNICPTCGLATSSFVIGELDDVRYFDHPDHFNADIMWFTKGYVEYVIPNLIPRNQKITQLSLSAEISSEAPGIDNDWPSDISFYINDTLVGTWTSPGDYGDVRGMFTPEWWPQNWNQYGLLKLLVINHKGTFIDGLKISDITTSELKLDYTSTIRFRIAVEEDSAHVGGLTIFGKSFGNYDQDIVVSINYEPLDTEKNTK", "soluble on expression in E. coli": "not soluble"},
      {"sequence": "MPWRNKEASSPSSANPPLEALQSPSFRGNMADKLKDPSTLGFLEAAVKISHTSPDIPAEVQMSVKEHIMRHTRLQRQTTEPASSTRHTSFKRHLPRQMHVSSVDYGNELPPAAEQPTSIGRIKPELYKQKSVDGEDAKSEATKSCGKINFSLRYDYETETLIVRILKAFDLPAKDFCGSSDPYVKIYLLPDRKCKLQTRVHRKTLNPTFDENFHFPVPYEELADRKLHLSVFDFDRFSRHDMIGEVILDNLFEASDLSRETSIWKDIQYATSESVDLGEIMFSLCYLPTAGRLTLTVIKCRNLKAMDITGYSDPYVKVSLLCDGRRLKKKKTTIKKNTLNPVYNEAIIFDIPPENMDQVSLLISVMDYDRVGHNEIIGVCRVGITAEGLGRDHWNEMLAYPRKPIAHWHSLVEVKKSFKEGNPRL", "soluble on expression in E. coli": "not soluble"},
      {"sequence": "MKKVLLIVISILFGSVLVGCQMNESNKTQDKIQSITGSVAYRERIALPDNAVVTVYLQDVSLADAPATVIAKQNFITNGMQVPLEFNLAYDSRKIKASHRYSVSARIEVDGKLRFITDTHYGVITDPEATKHVPMMLIGVHGE", "soluble on expression in E. coli": "not soluble"}
    ]}
  ]
}
